Assay results published in paper PMC8009048 (Science (New York, N.Y.), 2017).

Biological target: HOXB13 DNA binding domain fragment (residues 209-283) (human, UniProt Q92826 209-283)
Experiment: crystal structure

Sequence of HOXB13 DNA binding domain fragment (residues 209-283) (Q92826 209-283): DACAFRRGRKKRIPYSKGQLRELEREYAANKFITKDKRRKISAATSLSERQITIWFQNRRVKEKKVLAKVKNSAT

B1: MEIS1 DNA binding domain fragment (residues 279-333) (domain or fragment, human, UniProt O00470 279-333, looked up)
chain: FPKVATNIMRAWLFQHLTHPYPSEEQKKQLAQDTGLTILQVNNWFINARRRIVQP
B1: binds.
